Target: MBP-FL DDX3X (human, UniProt O00571 1-662)
Assay: EMSA; 1 mM ATP-Mg; peer review file prints 665; EMSA: 20 mM K-phosphate pH 7.0, 125 mM KCl, 1 mM DTT, 0.005% Tween-20, 10% glycerol (1 mM ATP-Mg for MBP-FL/Core-C), gel at room temperature; ITC: 20 mM K-phosphate pH 7.0, 50 mM KCl, 25 C; NMR: 200 mM KCl (also 120 mM), 10 C, 50 uM
Details: protein: recombinant; tags: N-terminal His6-MBP; chain copies: 2; label: 3'-FAM; blunt, self-complementary

Sequence of MBP-FL DDX3X (O00571 whole entry): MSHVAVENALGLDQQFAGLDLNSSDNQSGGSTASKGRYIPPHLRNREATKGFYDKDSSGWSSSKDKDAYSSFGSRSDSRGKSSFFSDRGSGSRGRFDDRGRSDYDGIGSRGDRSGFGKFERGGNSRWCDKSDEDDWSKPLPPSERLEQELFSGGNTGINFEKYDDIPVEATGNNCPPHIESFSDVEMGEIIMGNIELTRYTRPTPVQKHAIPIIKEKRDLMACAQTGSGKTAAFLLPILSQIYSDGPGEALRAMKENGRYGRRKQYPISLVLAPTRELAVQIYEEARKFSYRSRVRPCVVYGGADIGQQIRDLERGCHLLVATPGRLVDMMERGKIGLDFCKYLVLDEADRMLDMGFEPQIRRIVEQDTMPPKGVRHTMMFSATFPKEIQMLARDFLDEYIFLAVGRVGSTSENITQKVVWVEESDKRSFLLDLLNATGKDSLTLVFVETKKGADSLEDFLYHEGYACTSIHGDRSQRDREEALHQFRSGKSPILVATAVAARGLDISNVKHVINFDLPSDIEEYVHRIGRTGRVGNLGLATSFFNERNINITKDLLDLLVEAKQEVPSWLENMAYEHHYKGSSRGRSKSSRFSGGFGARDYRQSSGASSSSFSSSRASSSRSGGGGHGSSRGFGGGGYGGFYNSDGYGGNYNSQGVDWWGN

B1: GC-14mer dsRNA-FAM (dsRNA)
RNA 1: GGGCGGGCCCGCCC
RNA 2: GGGCGGGCCCGCCC
Kd: 655 ± 31 nM

— article PMC12394722, “Regulatory role of the N-terminal intrinsically disordered region of the DEAD-box RNA helicase DDX3X in selective RNA recognition”
